Earlier results as cited in US20250352622A1, “GLP-1 FORMULATIONS AND THEIR USES” (Rose Pharma Inc., priority 2024, published 2025).
Where two headings read alike, the source gives them in different places.

Question: Which t1/2 (longer acting GLP-1 agonist) does the source give for dulaglutide here?
Answer: about 90 hours

Question: For lixisenatide, which half-life (in vivo) is on record?
Answer: about 3 hours

Question: For semaglutide, which t1/2 (in vivo) is on record?
Answer: about 1 week

Question: Which t1/2 (in vivo) does the source give for tirzepatide here?
Answer: about 5 days
